B1: HA-tagged HACE1 wild-type [human] / myc-Rac1 Q61L [not stated] (parent complex)
chain 1: MERAMEQLNRLTRSLRRARTVELPEDNETAVYTLMPMVMADQHRSVSELLSNSKFDVNYAFGRVKRSLLHIAANCGSVECLVLLLKKGANPNYQDISGCTPLHLAARNGQKKCMSKLLEYSADVNICNNEGLTAIHWLAVNGRTELLHDLVQHVSDVDVEDAMGQTALHVACQNGHKTTVQCLLDSGADINRPNVSGATPLYFACSHGQRDTAQILLLRGAKYLPDKNGVTPLDLCVQGGYGETCEVLIQYHPRLFQTIIQMTQNEDLRENMLRQVLEHLSQQSESQYLKILTSLAEVATTNGHKLLSLSSNYDAQMKSLLRIVRMFCHVFRIGPSSPSNGIDMGYNGNKTPRSQVFKPLELLWHSLDEWLVLIATELMKNKRDSTEITSILLKQKGQDQDAASIPPFEPPGPGSYENLSTGTRESKPDALAGRQEASADCQDVISMTANRLSAVIQAFYMCCSCQMPPGMTSPRFIEFVCKHDEVLKCFVNRNPKIIFDHFHFLLECPELMSRFMHIIKAQPFKDRCEWFYEHLHSGQPDSDMVHRPVNENDILLVHRDSIFRSSCEVVSKANCAKLKQGIAVRFHGEEGMGQGVVREWFDILSNEIVNPDYALFTQSADGTTFQPNSNSYVNPDHLNYFRFAGQILGLALNHRQLVNIYFTRSFYKHILGIPVNYQDVASIDPEYAKNLQWILDNDISDLGLELTFSVETDVFGAMEEVPLKPGGGSILVTQNNKAEYVQLVTELRMTRAIQPQINAFLQGFHMFIPPSLIQLFDEYELELLLSGMPEIDVSDWIKNTEYTSGYEREDPVIQWFWEVVEDITQEERVLLLQFVTGSSRVPHGGFANIMGGSGLQNFTIAAVPYTPNLLPTSSTCINMLKLPEYPSKEILKDRLLVALHCGSYGYTMA
chain 2: not shown

Variants of: B1
Experiment: co-immunoprecipitation (anti-myc IP), quantified; cells co-transfected with myc-Rac1 Q61L and HA-tagged HACE1 mutants; n ≥ 4 biological replicates; parent: 1; read off a plot

ratio to parent | Variant
~0.55 | chain 1 V140L
~3.2 | chain 1 V140A
~0.28 | chain 1 Q173A

The remaining lines, values behind:

Variant | ratio to parent
chain 1 M114V | ~2.3
chain 1 G175S | ~0.18
chain 1 G175C | ~0.14
chain 1 N174A | ~0.26
chain 1 A204T | ~0.11

Source: article PMC5357957 (2017)
